Measurements taken from paper PMC2198872.

Target: actin (filamentous actin from chicken pectoralis) (chicken) (UniProt P68139)
Experiment: laser trap

Row | Substance | displacement duration (t on, time attached to actin) [ms] | displacement duration, step 1 of double step events [ms] | displacement duration, step 2 of double step events [ms]
1 | M5HMM(tag) with calmodulin (from UniProt Q99104 1-1098; P0DP23 1-149) (complex) | 100 | – | –
2 | M5HMM containing only bound calmodulin (from UniProt Q99104 1-1098; P0DP23 1-149) (complex) | 120 | – | –
3 | baculovirus-expressed (-)insert isoform of smooth muscle myosin HMM (from UniProt P10587 1-1979) (complex) | – | 468 | 400
